This note sets out measurements from the supplement of paper PMC12636428.

The series deals with Saccharomyces cerevisiae. In words: transcriptional activation domain activity (GFP:mCherry ratio, weighted mean of sorted bins, harmonized to initial dataset scale) (arbitrary fluorescence ratio units); higher = stronger transcriptional activation. The following applies: beta-estradiol 1 µM; induction time 4 h. The essentials:
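Values are activation activity, found as the read-weighted mean of bin median fluorescence, averaged across barcodes and then mapped linearly onto the initial dataset scale. Barcoded protein tiles fused to an estradiol-inducible synthetic transcription factor were integrated at the URA3 locus of GFP-reporter yeast diploids. Cells were induced for 4 hours at 30 °C with 1 uM beta-estradiol in SC, sorted into 8 bins by GFP:mCherry ratio, and barcode-sequenced, with tiles under 50 reads discarded.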
For the sequence “FGCLGFYPYLYCTGGMVLSHFAPHQNPELYPSDLSIISSLLISILFFCGWTLT”, the “transcriptional activation domain activity” value worked out at 67900. In the case of “VGRLVWFVTLLHVLFWVVQVLKDRRALTGKLVFAYVWQYQKFRFAWVAFLSMT”, the “transcriptional activation domain activity” value amounted to 75200.

Regarding “SLTREFNDIGLLTELHYVQGIETLIKIGTRFSMVAALVVYRNFRWHLSSAIPP”, the “transcriptional activation domain activity” value was found to be 48200. Regarding “DSKLLPGFASYLSFCLFLYAITTVLPFFSLDCPYSTPLTPLMCRLYHFFMFGI”, the “transcriptional activation domain activity” value stood at 66800. “ANEEAEPEHPEPAAEANDSTGREGRGRGKRGRDRGRGRGRGRGGRSGRGGASG”: the “transcriptional activation domain activity” value was 27600. For the sequence “LYLCLVILFKRCIIGGFKAGPRRHDQVTLMRYWFMEKLLPPGENLQGVASILG”, the “transcriptional activation domain activity” value was 16200.

With “ICGMWLRGSFTFLSTVKDPHVLLRTMIKRDPELGFLWVGAFITGCHDRALREG”, the “transcriptional activation domain activity” value was 71200.

For the sequence “PAGDNKAPRKEGARANNRPRDNDAPRGPRYDRTPRDGDAASRAPRGARAPRGA”, the “transcriptional activation domain activity” value is 41700. For the sequence “AAPVKKEEPKKEETPKAAEETATAPVAETPAVAAAAATEAPKEEAKEEPKRRS”, the “transcriptional activation domain activity” value is 35400.

As to “IVLGFLPIKSWQQHCFYIIMSFGSFVSTAFYSRFVELWGLLWPLWYLTILICV”, the “transcriptional activation domain activity” value stood at 42600. Consider “FLVLRYGALIGHVPLFYNVFADPCKTPHLIHILAFYHYIFVFVLTALTTVLLV”, for which the “transcriptional activation domain activity” value was found to be 49400.

As for “EAATKVDAAADGTDEVADRIADLDVSTSSNSKKKKKNSKSKKKAAKEEPVRLR”, the “transcriptional activation domain activity” value is 47300. As to “SSTDPTVEPDAPGGSEAEEPAKSETKESPAKKKVVEEEEEEEQKKAEPNGSSS”, the “transcriptional activation domain activity” value was 30700. As for “MCGGGWAFGLFFFFLYFFFFFLHIALLLPPLETVYFVLFFCMISRGLCFIFFF”, the “transcriptional activation domain activity” value was 65400. With “EDEAPEPEAEEKKPSAKGRRASKVKQENDEEPEPEPVKQVAKAKRGSKKAVKE”, the “transcriptional activation domain activity” value stood at 40200. Take “DFKHPMEPLACNWEDCDFLGDDTCSIVNHINCQHGINFDIQFANPDSFLPGSI”: the “transcriptional activation domain activity” value amounted to 141000. Under “EKESVCYKLRLNRDSLSIMKDFLACKHEHDPSLIVLAHVLLYKVTATFVKAVS” stands 53500; under “MDVEAKGRADRDAKRNPTACEHCRAARTRCQPSEQPGVCKKCLALKRECISRT”, 16500; under “MLLVSLVRVVHGFTVQQYIYTGQWLLYISLIFFLLHFPLVMKPITFLTILCLA”, 55100. With “KIVKHVILAATWRTSSVQDSFYLLATWWIICWQFYFVSVYIFPLILIALLHYM”, the “transcriptional activation domain activity” value came to 60700. For “MGNKQDGVSGLGFMLISFSCLLLEWLTCAVSSILLSSEFWELSLVCLTLFWFL”, the “transcriptional activation domain activity” value came out at 28900. On to “DTKLIAISDANELKGFDSQCIEEWDPILFSAAEIWPTKGKPIALVEMDPIDFD”, for which the “transcriptional activation domain activity” value is 145000. With “EVDAEAAEKPVKRLTRKARGVTEENQTSDAQSSRPAPVRRGRKPASVASTTAP”, the “transcriptional activation domain activity” value is 54700. With “LFEIDQRLGLLVPRNGINTSLVILKVIAKLLEKASIYNHFTLGIVWLRKSILV”, the “transcriptional activation domain activity” value is 49900.

For the sequence “VIVIVMLFFLFYFNRLLGFVISKIVSYWTWKLYSAHIEIESIKFALLGGRISF”, the “transcriptional activation domain activity” value came to 55200. Under “CLFFFSLFSLFILIFLSFLFFPPTSCFPSLYFLFYLSHFLLSFSFLYLYRYRF” stands 39500; under “KLHQQAKSDFDELQESIPHQVGFSTPQLTAQQLIENAIESGVVDLETLDLPPF”, 112000. Under “LNLGWRLMHFKVHFARIGVIVHGPQYGELTDWDCSSAHRGDILGFPKAQLLFE” stands 25100; under “MGGGVWEPVLDVWLFSFFFSLYTSFFIGFGSLSFFPSYLVCFFFISFPPHFLL”, 53400; under “LQCEGFTLRVPFVVDDTFYALMRCFDFFTIDEDPELWRLWCSLLRYALRLQNG”, 40200.
